Reference: article PMC11023060

Biological target: T1, CbAgoM (delA2;D463R;Y473A;K477C;T491H;T494S;K520G;A542D;A612D;del738-749)
T1 chain: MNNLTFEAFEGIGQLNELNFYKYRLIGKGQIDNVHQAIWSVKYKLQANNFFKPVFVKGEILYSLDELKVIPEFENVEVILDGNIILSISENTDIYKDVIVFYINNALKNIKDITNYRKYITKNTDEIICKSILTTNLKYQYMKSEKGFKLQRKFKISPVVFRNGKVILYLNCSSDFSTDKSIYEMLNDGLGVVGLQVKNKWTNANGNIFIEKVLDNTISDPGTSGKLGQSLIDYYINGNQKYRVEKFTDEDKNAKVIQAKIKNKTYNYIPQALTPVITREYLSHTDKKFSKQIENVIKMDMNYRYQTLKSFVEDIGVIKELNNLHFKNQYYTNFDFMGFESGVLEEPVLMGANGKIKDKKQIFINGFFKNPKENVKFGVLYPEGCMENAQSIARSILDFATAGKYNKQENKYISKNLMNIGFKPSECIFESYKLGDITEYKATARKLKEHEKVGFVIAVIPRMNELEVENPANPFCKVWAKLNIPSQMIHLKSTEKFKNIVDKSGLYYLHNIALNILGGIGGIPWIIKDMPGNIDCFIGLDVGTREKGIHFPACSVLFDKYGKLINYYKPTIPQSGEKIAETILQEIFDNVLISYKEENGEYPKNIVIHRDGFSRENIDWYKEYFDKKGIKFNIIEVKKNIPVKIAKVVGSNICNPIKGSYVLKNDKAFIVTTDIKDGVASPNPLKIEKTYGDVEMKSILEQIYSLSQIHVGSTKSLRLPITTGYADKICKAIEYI
Test: fluorescence polarization

TGAGGTAGTAGGTTGTATAGT (ssDNA, 5'-phosphate) [gDNA 21 nt]: binds.
